Kd and IC50 data for 12 sequences are collected here from the Immune Epitope Database (IEDB).

pIC50, pKd: −log10 of the molar value.

In general, pKd refers to −log10 of the Kd, conventionally taken in molar units. A word on the pIC50: it is the IC50 on a negative log10 scale, so that one unit is a factor of ten. Low values mean a high IC50, high ones a low IC50.

One test has as its target HLA-B*08:02. The experiment in a line: IEDB peptide-MHC binding, purified MHC/direct/fluorescence; filed as Kd, often an IC50 or EC50 that approximates it; ≥ and ≤ were set here for values at or beyond the usual limits of such assays.
The target of a further test is HLA-A*02:03. The description is as above.
The target of the next test is HLA-A*02:11. The description is as above.
The next test deals with HLA-A*02:12. The description is as above.
In a further test the target is HLA-A*02:16. The description is as above.
The target of another test is HLA-A*02:19. The test is described as above.
A further test has as its target HLA-A*03:01. The test is described as above.
A further test deals with HLA-A*24:03. The description is as above.
A further test concerns the target HLA-A*68:02. The test is described as above.
Test [1] has as its target HLA-A*02:01. The experiment in a line: IEDB peptide-MHC binding, purified MHC/competitive/fluorescence; filed as Kd, often an IC50 or EC50 that approximates it; ≥ and ≤ were set here for values at or beyond the usual limits of such assays.
The target of the next test is HLA-A*26:01. Described as above. The conditions noted are these: source organism: Zaire ebolavirus.
Test [2] addresses HLA-A*69:01. The description is as above. Conditions: source organism: Zaire ebolavirus.
In test [3] the target is HLA-B*15:01. The test is described as above. Conditions: source organism: Zaire ebolavirus.
Another test addresses HLA-B*15:17. The test is described as above. Conditions: source organism: Zaire ebolavirus.
In test [4] the target is HLA-B*18:01. The description is as above. Conditions: source organism: Zaire ebolavirus.
For a further test, the target named is HLA-B*27:03. The description is as above. Conditions: source organism: Zaire ebolavirus.
The next test concerns the target HLA-B*39:01. Described as above. Conditions: source organism: Zaire ebolavirus.
Test [5] concerns the target HLA-B*46:01. Described as above. The conditions noted are these: source organism: Zaire ebolavirus.
Test [6] addresses HLA-B*51:01. The test is described as above. The conditions noted are these: source organism: Zaire ebolavirus.
For a further test, the target named is HLA-B*57:01. The description is as above. The conditions noted are these: source organism: Zaire ebolavirus.
For a further test, the target named is HLA-A*01:01. The experiment in a line: IEDB peptide-MHC binding, purified MHC/direct/fluorescence; filed as Kd, often an IC50 or EC50 that approximates it; ≥ and ≤ were set here for values at or beyond the usual limits of such assays. The conditions noted are these: source organism: West Nile virus.
The target in test [7] is HLA-A*02:01. Described as above. Conditions: source organism: West Nile virus.
Another test deals with HLA-A*11:01. Described as above. Conditions: source organism: West Nile virus.
Another test deals with HLA-A*29:02. The test is described as above.
The next test addresses HLA-A*31:01. Described as above. The conditions noted are these: source organism: West Nile virus.
For test [8], the target named is HLA-A*69:01. Described as above. The conditions noted are these: source organism: West Nile virus.
The next test deals with HLA-B*08:01. The description is as above.
Test [9] addresses HLA-B*15:01. Described as above. Conditions: source organism: West Nile virus.
Test [10] addresses HLA-B*18:01. The test is described as above. The conditions noted are these: source organism: West Nile virus.
A further test deals with HLA-B*27:05. The description is as above. Conditions: source organism: West Nile virus.
The next test has as its target HLA-B*40:01. Described as above. The conditions noted are these: source organism: West Nile virus.
For a further test, the target named is HLA-B*44:02. The description is as above. The conditions noted are these: source organism: West Nile virus.
In test [11] the target is HLA-B*46:01. Described as above. Conditions: source organism: West Nile virus.
The target of test [12] is HLA-B*51:01. The test is described as above. Conditions: source organism: West Nile virus.
The next test concerns the target HLA-B*58:01. Described as above. Conditions: source organism: West Nile virus.
Another test has as its target HLA-B*07:02. The experiment in a line: IEDB peptide-MHC binding, purified MHC/competitive/fluorescence; ≥ and ≤ were set here for values at or beyond the usual limits of such assays.
Test [13] addresses HLA-A*02:01. The description is as above. Conditions: source organism: Zaire ebolavirus.
A further test concerns the target HLA-A*24:02. Described as above. Conditions: source organism: Zaire ebolavirus.
For test [14], the target named is HLA-B*15:01. The test is described as above. Conditions: source organism: Zaire ebolavirus.
[15] abbreviates: source organism: Zaire ebolavirus.
The mark [16] stands for this setting: source organism: West Nile virus.
[17] abbreviates: source organism: Ebola virus Yambio0403.
[18] abbreviates: source organism: Giardia lamblia ATCC 50803.

Regarding MLKRRGFHL, the negative-log Kd (pKd) with HLA-B*08:02 (source organism: Salmonella enterica subsp. enterica serovar Typhi str. CT18) was 6.99.
For the sequence NYNGLLSSI, the pKd with HLA-A*02:03 (setting [15]), in the test with HLA-A*02:11 (setting [15]), in the test with HLA-A*02:12 (setting [15]), with HLA-A*02:16 (setting [15]), with HLA-A*02:19 (setting [15]) and in the test with HLA-A*03:01 (setting [15]) was at most 4.70 each time. The negative logarithm of the Kd (pKd) is 9.52 in the test with HLA-A*24:03 (source organism: Ebola virus - Gabon (1994-1997)); at most 4.70 in the test with HLA-A*68:02 (setting [15]); at most 4.70 in the test with HLA-A*02:01 [1] (setting [15]); at most 4.70 with HLA-A*26:01; at most 4.70 in the test with HLA-A*69:01 [2]; at most 4.70 with HLA-B*15:01 [3]. For the same sequence, the pKd with HLA-B*15:17, in the test with HLA-B*18:01 [4], with HLA-B*27:03, with HLA-B*39:01, with HLA-B*46:01 [5] and with HLA-B*51:01 [6] was at most 4.70 in each case. For the same sequence, the pKd with HLA-B*57:01 was at most 4.70.
As to HSRRSRRSL, the pKd with HLA-A*01:01, with HLA-A*02:01 [7], in the test with HLA-A*03:01 (setting [16]), with HLA-A*11:01, in the test with HLA-A*29:02 (setting [16]) and with HLA-A*31:01 was at most 4.70 in each case. The pKd in the test with HLA-A*69:01 [8] is at most 4.70; with HLA-B*08:01 (setting [16]) it was 6.68; with HLA-B*08:02 (source organism: West Nile virus strain PTRoxo), 5.25; in the test with HLA-B*15:01 [9], at most 4.70; with HLA-B*18:01 [10] it was at most 4.70; with HLA-B*27:05 it was at most 4.70. For the same sequence, the pKd with HLA-B*40:01, with HLA-B*44:02, with HLA-B*46:01 [11], with HLA-B*51:01 [12] and with HLA-B*58:01 was at most 4.70 each time.
IPYFGPAAE had a pIC50 with HLA-B*07:02 (setting [15]) of at most 3.87.
In the test with HLA-B*07:02 (setting [15]), KPGPDNSTH gave a pIC50 of at most 3.72.
As for QFLSFASLF, the pIC50 with HLA-A*02:01 [13] was at most 4.06; with HLA-A*24:02, 7.89; with HLA-B*15:01 [14], 5.00. For the same sequence, the pKd with HLA-A*02:03 (setting [15]), in the test with HLA-A*02:11 (setting [15]), with HLA-A*02:12 (setting [15]), with HLA-A*02:16 (setting [15]), with HLA-A*02:19 (setting [15]) and in the test with HLA-A*03:01 (setting [15]) was at most 4.70 in each case. In addition, the pKd is 8.57 in the test with HLA-A*24:03 (source organism: Reston ebolavirus); at most 4.70 with HLA-A*68:02 (setting [15]); at most 4.70 in the test with HLA-A*02:01 [1] (setting [15]); at most 4.70 in the test with HLA-A*26:01; at most 4.70 with HLA-A*69:01 [2]; at most 4.70 in the test with HLA-B*15:17. For the same sequence, the pKd in the test with HLA-B*18:01 [4], with HLA-B*27:03, in the test with HLA-B*39:01, in the test with HLA-B*46:01 [5], with HLA-B*51:01 [6] and in the test with HLA-B*57:01 was at most 4.70 throughout.
GPRGALSLL showed a negative logarithm of the IC50 (pIC50) with HLA-B*07:02 (source organism: Homo sapiens) of 6.78.
AAPDGIRGF: the pIC50 with HLA-A*24:02 was 4.16; with HLA-B*07:02 (setting [15]), 4.92.
The sequence TPTVAPPAP showed a negative-log IC50 (pIC50) in the test with HLA-B*07:02 (setting [15]) of at most 3.84.
Regarding RYEFTAPFI, the pKd with HLA-A*02:03 (setting [17]), in the test with HLA-A*02:11 (setting [17]), in the test with HLA-A*02:12 (setting [17]), with HLA-A*02:16 (setting [17]), with HLA-A*02:19 (setting [17]) and with HLA-A*03:01 (setting [17]) was at most 4.70 throughout. The pKd was 9.70 with HLA-A*24:03 (setting [15]); at most 4.70 with HLA-A*29:02 (setting [17]); at most 4.70 with HLA-A*68:02 (setting [17]); at most 4.70 with HLA-A*02:01 [1] (setting [15]); at most 4.70 in the test with HLA-A*26:01; at most 4.70 with HLA-A*69:01 [2]. Also, the pKd with HLA-B*15:01 [3], in the test with HLA-B*15:17, with HLA-B*18:01 [4], with HLA-B*27:03, in the test with HLA-B*39:01 and with HLA-B*46:01 [5] was at most 4.70 in each case. Besides, the pKd with HLA-B*51:01 [6] and with HLA-B*57:01 was at most 4.70 each time.
LPKTSGHYD gave a pIC50 in the test with HLA-B*07:02 (setting [15]) of at most 3.74.
Consider ELRKRNEAL, for which the pKd with HLA-B*08:01 (setting [18]) was 7.38; with HLA-B*08:02 (setting [18]) it was 5.55; with HLA-A*02:01 [1] (setting [18]), at most 4.70.
